Laboratory results published in publication PMC8254717, “Characterization of the DdrD protein from the extremely radioresistant bacterium Deinococcus radiodurans”.

T1: DdrD (Deinococcus radiodurans R1 (ATCC 13939), UniProt Q9RXI7 1-198)
T1 sequence: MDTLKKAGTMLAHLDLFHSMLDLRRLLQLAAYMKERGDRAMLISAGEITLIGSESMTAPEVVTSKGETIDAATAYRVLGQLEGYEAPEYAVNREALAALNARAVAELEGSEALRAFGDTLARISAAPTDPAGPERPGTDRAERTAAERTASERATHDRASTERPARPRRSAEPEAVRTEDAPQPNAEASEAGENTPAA


Assays:
[1] = target: T1, DdrD; test: EMSA; 5 mM Mg2+; DdrD up to 8 uM; not completely shifted at highest concentration; proteinase K releases DNA; EMSA: 40 mM Tris-HCl pH 7.8, 5 mM MgCl2, 1.5 mM DTT, 50 mM NaCl, 2.5% glycerol, 3.3 nM DNA, 15 min at 4 C; 6% native PAGE in 0.25X TBE with 10% glycerol; conditions: protein: recombinant; tags: none (untagged; native stop codon in reverse primer, pET21a NdeI/EcoRI); label: 5' Cy5
[2] = target: T1, DdrD; test: EMSA; 5 mM Mg2+; same DdrD concentrations as oligo 1; EMSA: 40 mM Tris-HCl pH 7.8, 5 mM MgCl2, 1.5 mM DTT, 50 mM NaCl, 2.5% glycerol, 3.3 nM DNA, 15 min at 4 C; 6% native PAGE in 0.25X TBE with 10% glycerol; conditions: protein: recombinant; tags: none (untagged; native stop codon in reverse primer, pET21a NdeI/EcoRI); label: 5' Cy5 on strand 1; blunt

Binder	binding result [1]	binding result [2]
oligo 1 (67-mer ssDNA) (ssDNA) DNA: CTGTTTAAGAAATTCACCTCGAAAGCAAGCTGATAAACCGATACAATTAAAGGCTCCTTTTGGAGCC	binds	–
oligo 2 (67-mer dsDNA) (dsDNA) DNA 1: CTGTTTAAGAAATTCACCTCGAAAGCAAGCTGATAAACCGATACAATTAAAGGCTCCTTTTGGAGCC DNA 2: GGCTCCAAAAGGAGCCTTTAATTGTATCGGTTTATCAGCTTGCTTTCGAGGTGAATTTCTTAAACAG	–	no binding
